From patent US9611465B2, “Pharmaceutical composition containing core factor involved in proliferation and differentiation of central nervous cell” (Celgene Corporation, priority 2009, dated 2017)
Where a SMILES comes first, the peptide text is derived from it. The star is where a group is joined. Cbz = O=C(OCc1ccccc1)*

Legend:
[1] = test system: mammalian cells expressing CRBN fused with a FLAG epitope tag; assay: CRBN ubiquitin ligase activity using live cells (self-ubiquitination, immunoblotting); format: cell-based; details: MG132 added versus not added (FIG. 5)
Description: This process was carried out basically in accordance with the method of Ohtake et al. MG132, which is a proteasome inhibitor, was applied to mammalian cells expressing CRBN fused with a FLAG epitope tag, and the cells were left still. Subsequently, the cells were disrupted, and from the resulting cell lysate solution, FLAG was purified and CRBN was extracted, and then immunoblotting was performed under similar, but stricter, conditions to the above, whereby the self-ubiquitination was detected and measured.

[2] = biological target: T1, Ub/E1/E2 (GST fusion ubiquitin, Uba1, UbcH5b) (Homo sapiens, UniProt P0CG47+P22314+P62837); assay: Ubiquitin ligase activity of CRBN using an in vitro reaction system; format: biochemical; details: added to Uba1, UbcH5b and GST fusion ubiquitin; FIG. 4, lane 2
T1 construct: a recombinant GST fusion ubiquitin (Ub) protein
Description: This process was carried out basically in accordance with the method of Groisman et al. Firstly, CRBN and a binding protein (referred to as a CRBN complex) were purified from a cell lysate solution of mammalian cells expressing CRBN fused with a FLAG epitope tag using M2 FLAG agarose beads (SIGMA). Subsequently, the CRBN complex thus purified was mixed with an aqueous solution containing Uba1 (E1), UbcH5b (E2), and a recombinant GST fusion ubiquitin (Ub) protein, and after addition of ATP, the mixture was left to stand at 30 to 37° C. for two hours. Thereafter, the reaction was terminated by SDS, and self-ubiquitination and ubiquitination of the binding protein were visualized by polyacrylamide gel electrophoresis and immunoblotting, whereby the ubiquitin ligase activity was detected and measured.

[3] = test system: forebrain and midbrain of the zebrafish embryos; assay: CRBN overexpression experiment in the forebrain and midbrain; format: in vivo
Description: Adult fish were reared at a constant temperature of 28.5° C. and maintained and bred under a diurnal cycle of 14 hours of light-on and 10 hours of light-off. Fertilized eggs were secured by natural mating between males and females, and an aqueous solution of 600 ng/μl capped RNA synthesized in vitro was injected into the cytoplasm of the embryos before the first cleavage (1-cell stage) under conditions of a nitrogen gas pressure of 30 psi and a valve opening time of 30 msec (millisecond). Because the expression of all the genes except the lhx2 gene (i.e., the crbn gene, the six3.2 gene, and a gene encoding a protein composing an E3 ubiquitin ligase complex with crbn) has little impact on the embryonic development, even when systemically expressed, this method was used to obtain the first data.
(§1) The method of lipofection was entirely in accordance with the technique developed and published by Ando et al. (Ando and Okamoto, Efficient transfection strategy for the spatiotemporal control of gene expression in zebrafish. Mar. Biotechnol. 8(3): 295-303, 2006).
Antibody staining of early neurons of zebrafish was performed by the following technique. The embryos 24 to 28 hours after fertilization were fixed at 4° C. for 12 hours in a 4% paraformaldehyde/phosphate buffer (pH 8.0). […]

zebrafish embryo brain = assay: Determination of functional hierarchy of Lhx2 and CRBN (knockdown plus head-specific overexpression); format: in vivo
Description: as §1
An aqueous solution of a 25-mer antisense morpholino oligonucleotide (AMO, Gene Tools, LLC) corresponding to the vicinity of the translation initiation codon in the cDNA sequence of the gene to be knocked down (700 ng/μl, injection conditions were the same as those used for RNA) was injected into the embryos at the 1-cell stage. The sequence of AMO used for crbn gene knockdown is 5′ […] 3′ (SEQ ID NO:1), and that used for lhx2 gene knockdown is 5′ […] 3′ (SEQ ID NO:2).
This process was carried out entirely in accordance with the technique of Ando et al. (H. Ando et al., Lhx2 mediates the activity of Six3 in zebrafish forebrain growth. Dev. Biol. 287(2): 456-468, 2005) except for the following procedure. […] When the effect of knocking down of A is rescued, whereas the effect of knocking down of B is not rescued by an inverted combination of A and B, within a 24-hour period after fertilization, it is determined that A lies functionally upstream of B. […]

[4] = test system: glia cells and serotonin-producing cells of zebrafish; assay: Fluorescent staining of glia cells and serotonin-producing cells; format: in vivo; details: CRBN-overexpressing individual
Description: Two-day-old zebrafish were used (for glia cell staining and serotonin-producing cell staining, zebrafish 56 hours and 49 hours after fertilization were used, respectively). Zebrafish were fixed with 4% paraformaldehyde (PFA) and then washed with phosphate buffer (PBS), followed by treatment with 10 μg/ml protease K for partial digestion of the epidermis. After the digestion reaction, the zebrafish were washed with PBST (PBS+0.5% Triton X-100) for 20 minutes and then fixed with PFA again. The fixed zebrafish were washed with PBST at room temperature for one hour, followed by blocking using PBST+5% goat serum. The resulting specimens were reacted with a monoclonal anti-glia antibody (zrf-1/zrf-2) or a rabbit anti-serotonin antibody at 4° C. overnight (12 to 18 hours). Subsequently, the specimens were washed with PBST+5% goat serum for one hour at room temperature, and secondary antibody reaction was carried out by substituting the antibody for a goat anti-mouse IgG antibody (Cy-2 conjugate for glia cell staining) or a goat anti-rabbit IgG antibody (Cy-5 conjugate for serotonin-producing cell staining) at 4° C. overnight (12 to 18 hours). Subsequently, the specimens were washed with PBST at room temperature for one hour. After washing, PBST was replaced by 30%, 50%, 70% glycerol/PBS and the whole zebrafish were mounted on glass slides to obtain preparations. Fluorescence was observed under excitation wavelength of Cy-2 and Cy-5 and the distribution of the glia cells or the serotonin-producing cells was recorded. It is to be noted that glia cells were observed from the lateral side of zebrafish, while the serotonin-producing cells were photographed from the dorsal side in order to observe the distribution of the cells along the midline.

T1 sequence (P22314 whole entry, other chains not shown, the tested form may be a part): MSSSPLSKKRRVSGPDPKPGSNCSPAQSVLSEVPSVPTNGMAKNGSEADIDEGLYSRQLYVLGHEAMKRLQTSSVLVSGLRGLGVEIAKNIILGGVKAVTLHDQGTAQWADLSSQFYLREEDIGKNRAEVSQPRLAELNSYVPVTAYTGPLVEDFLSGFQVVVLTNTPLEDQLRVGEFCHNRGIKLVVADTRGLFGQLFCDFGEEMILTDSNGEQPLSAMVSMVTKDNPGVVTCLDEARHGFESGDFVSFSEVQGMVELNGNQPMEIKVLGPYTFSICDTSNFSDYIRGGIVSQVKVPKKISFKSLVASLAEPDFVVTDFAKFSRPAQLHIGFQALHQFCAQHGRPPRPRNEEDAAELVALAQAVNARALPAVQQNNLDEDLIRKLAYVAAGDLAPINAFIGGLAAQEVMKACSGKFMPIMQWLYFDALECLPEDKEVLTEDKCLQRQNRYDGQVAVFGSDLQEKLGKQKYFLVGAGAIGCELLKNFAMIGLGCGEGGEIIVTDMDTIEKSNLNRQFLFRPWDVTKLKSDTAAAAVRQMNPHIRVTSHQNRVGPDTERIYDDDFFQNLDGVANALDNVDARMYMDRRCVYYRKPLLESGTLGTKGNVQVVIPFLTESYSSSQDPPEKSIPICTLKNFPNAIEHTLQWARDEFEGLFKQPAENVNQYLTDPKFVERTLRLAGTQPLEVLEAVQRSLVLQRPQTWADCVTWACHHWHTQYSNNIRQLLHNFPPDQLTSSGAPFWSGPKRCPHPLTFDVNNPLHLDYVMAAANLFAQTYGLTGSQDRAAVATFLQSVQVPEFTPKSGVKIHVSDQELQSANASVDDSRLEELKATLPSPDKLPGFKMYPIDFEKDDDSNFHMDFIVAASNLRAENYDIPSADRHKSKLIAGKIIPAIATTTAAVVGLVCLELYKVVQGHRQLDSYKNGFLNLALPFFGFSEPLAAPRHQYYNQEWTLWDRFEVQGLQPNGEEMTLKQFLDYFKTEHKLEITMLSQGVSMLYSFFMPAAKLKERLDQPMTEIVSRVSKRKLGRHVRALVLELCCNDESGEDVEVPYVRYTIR
T1 sequence (P62837 whole entry, other chains not shown, the tested form may be a part): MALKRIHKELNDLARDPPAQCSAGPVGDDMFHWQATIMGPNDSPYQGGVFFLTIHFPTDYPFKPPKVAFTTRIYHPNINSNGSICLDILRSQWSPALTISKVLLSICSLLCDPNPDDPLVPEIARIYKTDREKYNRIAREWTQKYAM

Question: With `CC(C)C[C@@H](C=O)NC(=O)[C@H](CC(C)C)NC(=O)[C@H](CC(C)C)NC(=O)OCc1ccccc1` [MG132] (Cbz-Leu-Leu-Leu-aldehyde) as the molecule, how does the “bands representing the CRBN-containing proteins (self-ubiquitination)” value [1] read?
Answer: The value was “a number of bands representing the CRBN-containing proteins were detected”.

Question: With “FH-CRBN complex: CRBN fused with a FLAG epitope tag and binding proteins, purified from mammalian cell lysate with M2 FLAG agarose beads” as the molecule, how does the “detection of ubiquitinated proteins by immunoblotting” value [2] read?
Answer: The value was “proteins that would not be detected in the absence of addition of CRBN were detected”.

B1: CRBN: protein called CRBN (cereblon) that forms a ubiquitin ligase complex; overexpressed in zebrafish embryos by injected or lipofected crbn RNA (protein, UniProt Q68EH9 1-431, looked up)
Protein cereblon: MGNQLQLLPENEEEEEDDMETEDRDGEDVEKPSIINFDTSLPTSHAYLGSDMEEFHGRTLHDEDSVQNLPVLPHVALILIPGQTLPLQLFRPQEVSMFRNLVSQDRTFAVLAHSPDPSGTETKAEFGTTAEIYAFREEQEYGIETVKIKAVGRQRFRVHDIRTQADGIRQAKVQILPERILPDPLCALQFLPRLHTHSPQTKHTQTTPPQKRCSQNYRQKKLHCASMTSWPPWVYSLYDSKTLMSRVKKQLHEWDENLKDESLPTNPTDFSYRVAACLPIDDALRLQLLKIGSAIQRLRCELDIMDRCTSLCCKQCQDTEITSKNEIFSLSLYGPMAAYVNPHGYVHETLTVYKASNLNLIGRPSTLHSWFPGYAWTIAQCRTCSSHMGWKFSAVKKDLSPPRFWGLTRSALLPTIPQGEEGVEGSRLLCL
Question: Which “morphology of the neuron network in the brain” value ([3]; CRBN overexpression (FIG. 2, right)) does the source give for B1 here?
Answer: Its value is “morphologically normal”.

Question: What about the “enlargement of forebrain and midbrain in volume” value ([3]; CRBN overexpression, shape retained (FIG. 2, right)) of the same molecule?
Answer: The value was “approximately 1.5 times”.

Question: What about the “brain size of embryo” value (zebrafish embryo brain; crbn gene-overexpressing embryo, compared to the normal embryo (FIG. 1, upper right)) of the same molecule?
Answer: The value was “brain enlargement”.

Question: And the “brain size of embryo” value (zebrafish embryo brain; lhx2 gene knocked down while crbn gene overexpressed (FIG. 1, lower right))?
Answer: The value was “brain enlargement”.

Question: And the “spatial distribution of glia cells and serotonin-producing cells” value [4]?
Answer: Its value is “normal spatial distribution was maintained”.

Question: And the serotonin-producing cells ([4]; 49 hours after fertilization (FIG. 7))?
Answer: Its serotonin-producing cells is “increased”.

Question: And the glia cells ([4]; 56 hours after fertilization (FIG. 6))?
Answer: The glia cells was “increased”.
